Reference: publication PMC11641334, “The Effect of CBM1 and Linker on the Oxidase, Peroxidase and Monooxygenase Activities of AA9 LPMOs: Insight into Their Correlation with the Nature of Reductants and Crystallinity of Celluloses” (International Journal of Molecular Sciences, 2024)

How the values were obtained:
NcLPMO9C∆CBM = biological target: T1, NcLPMO9C∆CBM (Neurospora crassa, UniProt Q7SHI8); test: peroxidase assay, absorbance at […] nm (coerulignone), Michaelis-Menten fit; type: biochemical; conditions: 5 mM H2O2 co-substrate; copper-saturated enzyme 1 µM; 100 mM sodium phosphate pH 6.0; 37 °C; read-out: 2,6-DMP / Km
T1 construct: gene gh61-3; Pichia pastoris X33, copper-saturated

purified protein [1] = substrate: COc1cccc(OC)c1O; test: purified protein; type: biochemical, Neurospora crassa; conditions: 5 mM H2O2 co-substrate, copper-saturated enzyme 1 µM, 100 mM sodium phosphate pH 6.0, 37 °C
purified protein [2] = substrate: COc1cccc(OC)c1O; test: purified protein; type: biochemical, Aspergillus oryzae; conditions: 5 mM H2O2 co-substrate, copper-saturated enzyme 1 µM, 100 mM sodium phosphate pH 6.0, 37 °C

Km (NcLPMO9C∆CBM) [µM]	Molecule	Km (purified protein [1]) [µM]	kcat (purified protein [1]) [s⁻¹]	Km (purified protein [2]) [µM]	kcat (purified protein [2]) [s⁻¹]
1280 ± 120	COc1cccc(OC)c1O [2,6-DMP]				
	NcLPMO9C (Neurospora crassa OR74A) (protein, wild type with 79-residue linker and CBM1, C4-oxidizing; Pichia pastoris X33, N-glycosylated, Ni-NTA, copper-saturated) HTIFQKVSVNGADQGQLKGIRAPANNNPVTDVMSSDIICNAVTMKDSNVLTVPAGAKVGHFWGHEIGGAAGPNDADNPIAASHKGPIMVYLAKVDNAATTGTSGLKWFKVAEAGLSNGKWAVDDLIANNGWSYFDMPTCIAPGQYLMRAELIALHNAGSQAGAQFYIGCAQINVTGGGSASPSNTVSFPGAYSASDPGILINIYGGSGKTDNGGKPYQIPGPALFTCPAGGSGGSSPAPATTASTPKPTSASAPKPVSTTASTPKPTNGSGSGTGAAHSTKCGGSKPAATTKASNPQPTNGGNSAVRAAALYGQCGGKGWTGPTSCASGTCKFSNDWYSQCLP	940 ± 90	0.58 ± 0.02		
	AoLPMO9B (Aspergillus oryzae RIB40) (protein, wild type, C1/C4-oxidizing, no CBM1; Pichia pastoris X33, N-glycosylated, Ni-NTA, copper-saturated) HGHVSNIVINGVYYEGFDINSFPYMGESAPTVAAWTTPNTGNGPLAPDDYSSPDIICHQNATAGKGYVEVNAGDRISLQWTPWPESHHGPVVDYLARCEPNCASVDKTSLEFFKIDGVGIVDGSSVPGVWGDDQLIQNNNTWLVEIPKSIAPGYYVLRHELIALHSAGTEGGAQNYPSCFNLKVNGEGTDKPAGVVGTELYTPTGDGIIFNIYQTVSEYPVPGPTLYSGAATGVTQAASTVTSTGTALTVGAAATTPASGSGASSSAAPSSSAAATPSSSAAPSSSAAARR			1550 ± 140	1.33 ± 0.04
	AoLPMO9A (Aspergillus oryzae RIB40) (protein, wild type, C1/C4-oxidizing, no CBM1; Pichia pastoris X33, N-glycosylated, Ni-NTA, copper-saturated) HGYVSGVVIDGQYYGGYLVDKYAYSDNAPDTIGWTTSATDLGFVDGTGYQSPDIICHKDGAPGALTAEVAAGGKIELQWTEWPESHHGPVLNYLAPCGGECSAVDKTTLEFFKIEAKGLIDGTTPPGQWATDDLISNNNSYTVTIPTSIQEGNYVLRHEIIGLHSAGQKDGAQNYPQCINIKVTGGGDATPAGTAGEALYKDTDAGILFDIYSDLSGGYPIPGPEVFSA			1760 ± 310	1.48 ± 0.09
